One substance from US5840530 can be followed below.

Assay [1] concerns the target recombinant human IL-12 beta2 receptor protein expressed from the B5-10 plasmid on COS cells (human). Put plainly: equilibrium binding of 125I-labeled IL-12 to transfected COS cells, Scatchard analysis, single site model.
Assay [2] addresses recombinant human IL-12 beta1 receptor protein (human). Described as above.

In general, Kd refers to a measure of binding affinity in units of concentration. Turning to “recombinant human IL-12 (Interleukin-12) (from UniProt P29460) (ligand)”, the Kd in assay [1] and in assay [2] was 2 to 5 nM in each case.
